From patent US20240270857A1 (CHIA TAI TIANQING PHARMACEUTICAL GROUP, published 2024)

Columns and labels:
Test in all cases: cell-based or functional assay
[1] = target: T1, cynomolgus IL-36R overexpressed on 293T-CynoIL36R-NFκB cells (cynomolgus monkey)
T1 chain: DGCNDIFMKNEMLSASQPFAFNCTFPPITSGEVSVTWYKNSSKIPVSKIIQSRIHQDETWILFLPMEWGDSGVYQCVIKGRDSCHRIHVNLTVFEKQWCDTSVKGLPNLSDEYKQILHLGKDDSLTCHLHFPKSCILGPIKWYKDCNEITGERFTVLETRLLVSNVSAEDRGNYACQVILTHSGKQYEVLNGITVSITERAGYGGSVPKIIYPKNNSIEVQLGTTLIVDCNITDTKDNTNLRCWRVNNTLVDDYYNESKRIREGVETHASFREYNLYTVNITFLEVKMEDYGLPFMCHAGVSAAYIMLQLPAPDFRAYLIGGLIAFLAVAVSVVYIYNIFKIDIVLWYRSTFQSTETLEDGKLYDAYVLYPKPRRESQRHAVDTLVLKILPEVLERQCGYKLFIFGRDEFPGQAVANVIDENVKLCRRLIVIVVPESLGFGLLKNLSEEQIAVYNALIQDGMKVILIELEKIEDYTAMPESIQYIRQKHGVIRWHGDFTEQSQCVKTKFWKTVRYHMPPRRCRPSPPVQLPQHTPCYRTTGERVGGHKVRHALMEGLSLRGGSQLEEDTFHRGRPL

[2] = target: T1, cynomolgus IL-36R overexpressed on …
[3] = target: T2, IL-36R naturally expressed on OVCAR8 cells and on normal human epidermal keratinocytes (NHK cells) (human, UniProt Q9HB29 20-575)
T2 sequence (looked up): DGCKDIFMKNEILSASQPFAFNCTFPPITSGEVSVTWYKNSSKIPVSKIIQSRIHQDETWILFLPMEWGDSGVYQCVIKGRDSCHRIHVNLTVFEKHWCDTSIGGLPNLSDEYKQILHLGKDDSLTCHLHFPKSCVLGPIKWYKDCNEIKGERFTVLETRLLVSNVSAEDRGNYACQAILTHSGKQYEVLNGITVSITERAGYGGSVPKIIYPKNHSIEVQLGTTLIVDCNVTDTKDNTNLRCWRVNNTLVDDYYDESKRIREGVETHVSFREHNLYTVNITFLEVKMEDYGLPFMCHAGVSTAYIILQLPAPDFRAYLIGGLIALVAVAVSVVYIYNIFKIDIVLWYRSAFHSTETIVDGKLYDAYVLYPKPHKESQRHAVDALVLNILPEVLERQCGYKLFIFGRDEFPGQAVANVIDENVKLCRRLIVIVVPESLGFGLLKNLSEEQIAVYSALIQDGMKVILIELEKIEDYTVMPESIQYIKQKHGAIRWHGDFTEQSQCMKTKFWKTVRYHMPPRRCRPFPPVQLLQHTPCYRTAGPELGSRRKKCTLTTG

[4] = target: T2, IL-36R naturally expressed on OVCAR8 …; remark: listed apart in the source
[5] = target: T2, IL-36R naturally expressed on OVCAR8 …; remark: listed apart in the source
[6] = target: T3, human IL-36R overexpressed on 293T-hIL36R-NFκB cells (human, UniProt Q9HB29 20-575)
T3 sequence: T2 sequence (looked up)

B1: chimeric 72C1 antibody (antibody, human IgG4 S228P, kappa)
heavy: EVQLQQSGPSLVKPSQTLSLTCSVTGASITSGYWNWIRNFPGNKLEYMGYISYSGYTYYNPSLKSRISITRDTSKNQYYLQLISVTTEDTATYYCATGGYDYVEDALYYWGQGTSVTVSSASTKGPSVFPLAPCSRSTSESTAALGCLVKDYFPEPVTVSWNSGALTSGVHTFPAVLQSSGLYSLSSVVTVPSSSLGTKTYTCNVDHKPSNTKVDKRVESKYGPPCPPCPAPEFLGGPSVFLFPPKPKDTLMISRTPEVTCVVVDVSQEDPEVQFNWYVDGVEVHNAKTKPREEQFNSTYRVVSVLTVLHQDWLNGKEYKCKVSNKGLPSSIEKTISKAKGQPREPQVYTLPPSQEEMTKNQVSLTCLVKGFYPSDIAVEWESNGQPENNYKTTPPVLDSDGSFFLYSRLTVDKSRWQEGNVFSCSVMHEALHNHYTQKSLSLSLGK
light: EILLTQSPAIMSATLGEKVTMSCRASSNVRYMYWYQLKSGASPKLWIYLTSNLASGVPARFSGSGSGTSYSLTISSVEAEDAATYFCQQFTTSPYTFGGGTKLEIKRTVAAPSVFIFPPSDEQLKSGTASVVCLLNNFYPREAKVQWKVDNALQSGNSQESVTEQDSKDSTYSLSSTLTLSKADYEKHKVYACEVTHQGLSSPVTKSFNRGEC
notes: Mouse variable regions on human IgG4 / kappa; also called xi72C1
IC50; NFκB-luciferase reporter in 293T-CynoIL36R-NFκB cells stimulated with hIL36α, inhibition rate % [1]: 3.32 nM | IC50; NFκB-luciferase reporter in 293T-CynoIL36R-NFκB cells stimulated with hIL36β, inhibition rate % [2]: 3.6 nM | IC50; IL-8 production of OVCAR8 cells stimulated with hIL36α, inhibition rate % [3]: 0.113 nM | IC50; IL-8 production of OVCAR8 cells stimulated with hIL36β, inhibition rate % [4]: 0.116 nM | IC50; IL-8 production of OVCAR8 cells stimulated with hIL36γ, inhibition rate % [5]: 0.0555 nM

B2: BI655130 (antibody, human IgG1, kappa, L234A L235A)
heavy: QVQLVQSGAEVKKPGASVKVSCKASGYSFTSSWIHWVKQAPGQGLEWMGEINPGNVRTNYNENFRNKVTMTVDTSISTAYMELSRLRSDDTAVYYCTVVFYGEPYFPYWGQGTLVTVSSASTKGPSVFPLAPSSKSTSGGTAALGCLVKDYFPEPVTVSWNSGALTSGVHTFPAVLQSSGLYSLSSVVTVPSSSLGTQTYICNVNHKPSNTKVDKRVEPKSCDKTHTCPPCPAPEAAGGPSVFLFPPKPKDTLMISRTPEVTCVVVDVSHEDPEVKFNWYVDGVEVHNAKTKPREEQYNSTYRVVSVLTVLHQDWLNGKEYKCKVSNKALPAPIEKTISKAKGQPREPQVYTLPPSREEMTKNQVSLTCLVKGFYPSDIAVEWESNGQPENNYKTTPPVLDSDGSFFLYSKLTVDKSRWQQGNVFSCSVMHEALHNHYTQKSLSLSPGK
light: QIVLTQSPGTLSLSPGERATMTCTASSSVSSSYFHWYQQKPGQAPRLWIYRTSRLASGVPDRFSGSGSGTDFTLTISRLEPEDAATYYCHQFHRSPLTFGAGTKLEIKRTVAAPSVFIFPPSDEQLKSGTASVVCLLNNFYPREAKVQWKVDNALQSGNSQESVTEQDSKDSTYSLSSTLTLSKADYEKHKVYACEVTHQGLSSPVTKSFNRGEC
notes: also called Spesolimab
IC50; NFκB-luciferase reporter in 293T-hIL36R-NFκB cells stimulated with hIL36γ, inhibition rate % [6]: ~13.2 nM | IC50; NFκB-luciferase reporter in 293T-CynoIL36R-NFκB cells stimulated with hIL36α, inhibition rate % [1]: 27.7 nM | IC50; NFκB-luciferase reporter in 293T-CynoIL36R-NFκB cells stimulated with hIL36β, inhibition rate % [2]: 56.3 nM | IC50; IL-8 production of OVCAR8 cells stimulated with hIL36α, inhibition rate % [3]: 0.0799 nM | IC50; IL-8 production of OVCAR8 cells stimulated with hIL36β, inhibition rate % [4]: 0.0755 nM | IC50; IL-8 production of OVCAR8 cells stimulated with hIL36γ, inhibition rate % [5]: 0.0405 nM

B3: chimeric 84C4 antibody (antibody, human IgG4 S228P, kappa)
heavy: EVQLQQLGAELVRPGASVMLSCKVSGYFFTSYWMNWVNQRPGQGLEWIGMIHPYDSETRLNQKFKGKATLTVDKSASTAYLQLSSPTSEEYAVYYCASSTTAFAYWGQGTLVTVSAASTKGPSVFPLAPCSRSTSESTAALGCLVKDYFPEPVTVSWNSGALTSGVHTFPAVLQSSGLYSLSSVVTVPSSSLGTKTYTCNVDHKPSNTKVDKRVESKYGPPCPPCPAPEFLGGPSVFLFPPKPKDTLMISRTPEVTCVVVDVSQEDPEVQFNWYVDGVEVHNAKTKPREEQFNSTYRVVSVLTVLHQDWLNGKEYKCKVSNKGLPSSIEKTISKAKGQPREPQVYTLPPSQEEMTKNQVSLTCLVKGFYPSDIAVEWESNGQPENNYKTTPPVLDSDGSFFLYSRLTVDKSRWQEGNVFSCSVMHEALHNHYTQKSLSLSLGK
light: DILMTQSPSSLSASLGERVSLTCRASQDIGNALNWLQQAPDGTIKRLIYATSSLDPGVPKRFSGSRSGSDYSLTISSLASEDFVYYYCLQYASSPYTFGGGTKLEIKRTVAAPSVFIFPPSDEQLKSGTASVVCLLNNFYPREAKVQWKVDNALQSGNSQESVTEQDSKDSTYSLSSTLTLSKADYEKHKVYACEVTHQGLSSPVTKSFNRGEC
notes: Mouse variable regions on human IgG4 / kappa; also called xi84C4
IC50; NFκB-luciferase reporter in 293T-hIL36R-NFκB cells stimulated with hIL36γ, inhibition rate % [6]: ~13.2 nM
